# Assay: yeast display, Sf9 membrane polyspecificity reagent, FACS + sequencing; frameworks hold sequencing errors
# Procedure, shortened: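 Galactose induction of a Saccharomyces cerevisiae BJ5465 synthetic nanobody display library ran 36–48 hours. The cells were then stained for 1 hour at 4 °C with 10% biotinylated, detergent-solubilized Sf9 membrane reagent, pulled down on streptavidin microbeads and FACS-sorted into low and high (top ~1%) gates on expression and reagent-binding fluorescence. Labels for polyreactivity follow the gate of origin.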
row,Sequence,polyreactivity (PSR sort gate)
1,QVQLVESGGGLDQAGGSLRLSWAASGFTFVPYAMGWYRQAPGKERNLVARITGGGGNTYYADSVKGRFTISRDNAKNTVYLQMISLKPEDTAVYYCAADYTNWKTCSNEMYYWGQGTQVTVSS,low polyreactivity
2,QVQLVESGGGLDQAGGSLRLSWAASGGIFIYNAMGWYRQPPGKEREVVAAINISGGNTYYADSVKGRFTISRDNAKNTVYLQMNSLKPEDTAVYYCAARYASSWWIRYYFWGQGTQVTVSS,high polyreactivity
3,QVQLVESGGGLDQAGGSLRLTCAASGFTFTIYAMGWYRQAPGKERELVATISGRAGRTYYADSVMGRFTISRDNAKNTVSLQMTSLKPEDTAVYYCNAGQWRYPGLYYYWGQGTQVNVSS,high polyreactivity
4,QVQLVESGGGLDQAGGSLRLTCAASGNTFRSYAMGWSRQAPGKEREFVAAISLSGGNTYYADSVKGRFTISRDNAKNTVYVQMNSLKPEDTAVYYCAADYEYSGYGYWGQGTQVTVSS,high polyreactivity
5,QVQLVESGGGLDQAGGSLRLTCAASGSTFYLYDMGWYRQAPGKERELVAVISWSGGSTSYADSVKGRFTISSDNAKNTVYLHMNSLTPEDTAVYYCAAAIGVYYIDYRYLGTVEYWGQGTQVTVSS,low polyreactivity
6,QVQLVESGGGLDQAGGTLRISCAASGSIFAPNAMSWNRQAPGKERELVAAITYSGTSTYADSVKGRFTISRDNAKNTVYLQMNSLKPEDTAVYYCAAEGSGVYYHSYDYWGQGTQVTVSS,low polyreactivity
7,QVQLVESGGGLDQAGRSLRLSCAASGLIFTDYTMGWYRQAPGKERELVATISTGGRTFYADSVKGRFTISRDNAKNTVYLQMNSLKPEDTAVYYCAKDQPGRAGFLFTPGLVDYDYWGQGTQVTVSS,low polyreactivity
8,QVQLVESGGGLDQARGSLRLSCAASGRTFWTNVMGWYRQAPGKERELVAAITSSTDSTYYADSVKGRFTISLDNAKNTVYLQMNSLKPEDTAVYYCATVVRLYRGRYRYDYWGQGTQVTVSS,high polyreactivity
9,QVQLVESGGGLDQARGSLRLSCAASGSIFWKYAMGWYRQAPWKERELVAAISRSSSTTYYADSVKGRFTISRDNAKNTVYLQMNSLKPEDTAVYYCAAYYRSRVSDDYWGQGTQVTVSS,high polyreactivity
10,QVQLVESGGGLDQARGSLRLSCAASGSTLAVYAIGWYRQAPGKEREFVAAISWSGVSTYYADSVKGRFTISLDNAKNTVYLQMNSLKPEDTAVYDCAAKRVRALYGGSEGGYWGQGTQVTVSS,low polyreactivity
11,QVQLVESGGGLDQSGGSLRISCAASGSTFYRNAMGWYRQAPGKEREFVAAITTDDSTYYADSVKGRFTISRDNAKNTVYLQMNSLKPEDTAVYYCAAGLEGKATWAAVGGYDYWGQGTQVTVSS,low polyreactivity
12,QVQLVESGGGLFHAGGRLRLSCAASGRIFGRYDMGWSIQAPGKERELVASISTGGGGTYYADSVKGRFTISRDNAKNTVYLQMNSLKPEDTAVYYCAKAWRGFWTKYDYWGQGTQVTVSS,low polyreactivity
13,QVQLVESGGGLFHAGGSLRLSCAASGRIFYNYAMGWSRQAPGKERELVAAISGSGGSTYYADSVKGRFTISRDNAKNTVYLQMNSLKPDDTAVYYCSTSGPQYYSRNFDYWGQGTQVTVSS,low polyreactivity
14,QVQLVESGGGLFHAGGSLRLSFAASGSILYNAMGWYRQAPGKERELVAAIDSTSVDTYYADSVKGRFTISRDNAKNTVYLQMNSLKPEDTAVYYCSADYVYDDEGDFWGQGTQVTVSS,high polyreactivity
15,QVQLVESGGGLFKAGGSLRLSCAASGSIFRYYTMGWYRQAPGKERELVAAINGSGGSTYYADSVKGRFTISRDNAKNTVYLQMNSLKPEDTAVYYCNRVTKEYGLRQYYYWGQGTQVTVSS,low polyreactivity
16,QVQLVESGGGLFQAGGSLRISCAASGRTFWYYAMGWYRPAPGKERELVAAITRGTSTYADSVKGRYTISRDNAKNTVYLQMNSLKPEDTAVYYCATYFRVWYRSYDYWGQGTQVTVSS,high polyreactivity
17,QVQLVESGGGLFQAGGSLRLICAASGFIFGWYDMGWYRQAPGKERELVAAIDSGGSTNYADSVKGRFTISRDNAKYTVYLQMNSLKPEDTAVYYCAADHHDVWTEYYYWGHGTQVTVSS,low polyreactivity
18,QVQLVESGGGLFQAGGSLRLICAASGRTFVVYAMGSYRQAPGKEWELVAAISWSGGRTYYADSVKGRFTMSRDNAKNTVYLQMNTLKPEDTAVYYCPAEVYLYKYVYYYWGQGTQVTVSS,high polyreactivity
19,QVQLVESGGGLFQAGGSLRLSCAASGFTFARYAMGWYRQAPGKEWELVARISWSGGSTYYADSVKGRFTISRDYAKNTFYLQMYSLKPQVTEVYYCAADGWYYRYPRDDYWGQGTQVTVSS,low polyreactivity
20,QVQLVESGGGLFQAGGSLRLSCAASGFTFDYYAMGWYRPAPGKERELVAAISRAGSTNYADSVKGRFTISRDNAKNTVYLQMNSLKPEDTAVYYCNKGYHSWSRLSQFGWSYDYWGQGTQVTVSS,high polyreactivity
21,QVQLVESGGGLFQAGGSLRLSCAASGFTFGIYAMGWYRQAPGKERELVAAITKRGGITSYADSVKGRFTISRDNAKNTVYLQMNSLKPEDTAVYYCAKIGGFLSYWSGDYWGQGTQVTVSS,low polyreactivity
22,QVQLVESGGGLFQAGGSLRLSCAASGFTFSNYAMGWYRKAPGKERELVAAITRRGGRTRYADSVKGRFTISRDNAKNTVYLQMNSLKPEDTAVYYCARSRYRYIVTTLYLYDYWGQGTQVTVSS,high polyreactivity

row,Sequence,polyreactivity (PSR sort gate)
1,QVQLVESGGGLFQAGGSLRLSCAASGFTFVYYAMGWYRQAPGKERELVASISGGGRTYYADSVKGRFTISRENAKNTGYLQMNSLIPEDTAVYYCAARYWDYRNRWLYVYWGQGTQLTVSS,high polyreactivity
2,QVQLVESGGGLFQAGGSLRLSCAASGFTFYVYAMGWYRQAPGKERELVAAISSGGGSTYYADSVKGRFTISRDNAKNTVYLQMNSLKPEDTAVYYCNKLFPGTYDGAHGYWGQGTQVTVSS,low polyreactivity
3,QVQLVESGGGLFQAGGSLRLSCAASGIIFAVYDMGWYRQAPGKERELVAAISWSGGSTYYADSVKGRFTISRDNAKNTVYLQMNSLKPEDTAVYYCNRVRYSRLGDYWGQGSQVTVSS,high polyreactivity
4,QVQLVESGGGLFQAGGSLRLSCAASGIIFYYNTMGWYRQAPGKDRELVAAISQRGRSTYYADSVKGRFTISRDNAKNTVYFHLNSLKPEDTAVFYCNKLRNSHGFRYDYWGQGTQVTVSS,high polyreactivity
5,QVQLVESGGGLFQAGGSLRLSCAASGLIIAYYAMRWYRQAPGKERELVAAISSVGSTYYADSVNGRFTISRDNAKNTVYLQMNSLKPEDTAVYYCAAAPRGGMYYWGQGTQVTVSS,high polyreactivity
6,QVQLVESGGGLFQAGGSLRLSCAASGLTFGGNAMGWYRHAPGKERELVAAISSGGSTNYADSVKGRFTISRDNAKNTVYLQMNSLKPEDTAVYYCAVEAWSVPPYDYWGQGTQVTVSS,low polyreactivity
7,QVQLVESGGGLFQAGGSLRLSCAASGNTFRRNTMGWYRQAPPKERELVATISWRGGKTFYADSVKGRFTISRDNAKNTVYLQMNSLKPEDTAVYYCAADTRTQTYIYGYWGQGTQVTVSS,high polyreactivity
8,QVQLVESGGGLFQAGGSLRLSCAASGRIFIVITMGWYRQAPGKERELVATIDSDGDTNYADSVKGRFTISRDNAKNTVYLQMNSLKPEDTAVYYCAAYYTHTLAALKGGRMDYWGQGTQVTVSS,low polyreactivity
9,QVQLVESGGGLFQAGGSLRLSCAASGRIFKYAMGWYRQAPGKERELVAAISSSGGRTYYADSVKGRFTISRDNAKNTVYLQMNSLKPEDTAVYYCAATSYNTQSAFYYWGQGTQVTVSS,high polyreactivity
10,QVQLVESGGGLFQAGGSLRLSCAASGRIFRGYAMGWYRQAPGKERELVAAIDRVGRTKYADSVKGRFTISRDNAKNTVYLHMNSLKPEDTAVYYCAAKASRVDWGYGYWGQGTQVTVSA,high polyreactivity
11,QVQLVESGGGLFQAGGSLRLSCAASGRILNINAMGWYRQAPGKERELVAAITWRGGRTFYADSVKGRFTISRDNAKNTVYLQMNSLKPEDTAVYYCAASSNTWYPTGYYWGQGTQVTVSS,high polyreactivity
12,QVQLVESGGGLFQAGGSLRLSCAASGRIVGLYAMGWYRPAPGKERELVAAISRGGSTNYADSVKGRFTISRDNAKNTVYLQMNSQKPEDPAVYYCNARYVKYYTYLYNYDYWGQGTQVTVSS,high polyreactivity
13,QVQLVESGGGLFQAGGSLRLSCAASGRTFRVYAMGWYRQAPGKEREFVAAISYSGGRTNYADSVKGRFTISRDYAKNTVYLQKNSLKPEDTAVYYCAARYTWAEGDYWGQGTQVTVSS,low polyreactivity
14,QVQLVESGGGLFQAGGSLRLSCAASGRTLPAYAMGWYRQAPGKERELVAAISWGGGSTYYADSVKGRFTISRDNAKNTVYLQMNSLKPEDTSVYYCAVAGYWFAVAEYEYWGQGTQVTVSS,low polyreactivity
15,QVQLVESGGGLFQAGGSLRLSCAASGSIFGHYAMGWYRQAPGKERELVAAISYSGGSTYYADSVKGRFTISRDNAKNTVYLHMNSLKPEDTAVYYCNADLYDAGSEMDYWGQGTQVTVSS,high polyreactivity
16,QVQLVESGGGLFQAGGSLRLSCAASGSIFRYNTMGWYRHAPGKESELVARISSGGSTYYADSVKGRFTISRDNAKNTVYLQMNSLKPEDTAVYYCAAVSRHRGWDRYYWGQGTQVTVSS,high polyreactivity
17,QVQLVESGGGLFQAGGSLRLSCAASGSIFSWNDIGRYIQAPGKERELVAAITSGGSTYYADSVKGRFTISRDNAKNTVYLQMNSLKPEDTAVYYCAAGQDLHDFDYWGQGTQVTVSS,low polyreactivity
18,QVQLVESGGGLFQAGGSLRLSCAASGSIFWSYAMGWYRQAPGKERELVAAISSGGSTNYADSVKGRFTISRDNAKNTVYLQMNSLKPEDTAVYYCNAVGAKGYVKGFDYWGQGTQVTVSS,low polyreactivity
19,QVQLVESGGGLFQAGGSLRLSCAASGSIFWSYAMGWYRQAPGKERELVAAISSGGSTNYADSVKGRFTISRDNAKNTVYLQMNSLQPEDTAVYYCNALGAKGYVKGFDYWGQGTQVTVSS,low polyreactivity
20,QVQLVESGGGLFQAGGSLRLSCAASGSSFPFYAMGWYRQAPGKERELVASISSGGSTNYADSVKGRFTISRDNAKNTVYLQMNSLKPEDTAVYYCNADVPYRWDTWFQVVYPESYDYWGQGTQVTVSS,low polyreactivity
21,QVQLVESGGGLFQAGGSLRLSCAASGSTFAVYAMGWYRQAPGKERELVAVISWSDGRTYYADSVKGRFTISRDNAKNTVYLQMNSLKPEDTAVYYCNARLDTFVPRYGYWGHGTQVTVSS,high polyreactivity

# — the nanobody polyreactivity screen of Harvey et al. (2022)
